Measured values as given in patent publication US20150203577A1 (Chugai, published 2015).

Tests used:
mouse FcγRIII = biological target: T1, mouse FcγRIII (mouse, UniProt P08508 31-215); experiment: SPR Biacore T200
T1 construct: also called mFcγRIII; mFcgRIII
T1 chain: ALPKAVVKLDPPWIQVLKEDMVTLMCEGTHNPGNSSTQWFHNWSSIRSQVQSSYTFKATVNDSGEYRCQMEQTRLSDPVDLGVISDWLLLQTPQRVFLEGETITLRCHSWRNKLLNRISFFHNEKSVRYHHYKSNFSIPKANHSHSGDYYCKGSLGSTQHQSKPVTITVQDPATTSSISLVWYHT
Source text: The antibody H chain variable region used was the variable region H237 (SEQ ID NO: 1) of the H chain VH3-IgG1 of the anti-IL-6 receptor antibody Fv4-IgG1 described in WO2009/125825. The antibody L chain commonly used was the L chain MRAL-k0 (SEQ ID NO: 2) of the anti-IL-6 receptor antibody tocilizumab. The aforementioned 11 variants were used as templates to introduce the alteration. These variants were expressed and purified by the method of Reference Example 1 and evaluated for their binding to mFcγRII and mFcγRIII by the method of Reference Example 2 using Biacore T200.
Each altered antibody was analyzed for its interaction with each Fcγ receptor prepared above using Biacore T100 (GE Healthcare Japan Corp.), Biacore T200 (GE Healthcare Japan Corp.), Biacore A100, or Biacore 4000. The running buffer used was HBS-EP+ (GE Healthcare Japan Corp.). The assay temperature was set to 25° C. […]
In order to calculate the KD value of each altered antibody for FcγR, kinetic analysis was conducted according to the following method: first, the antibody of interest was captured onto any of these chips and allowed to interact with mFcγR diluted with a running buffer. […] From these values, the dissociation constant KD (mol/L) was calculated.

mouse FcγRII [1] = biological target: T2, mouse FcγRII (mouse, UniProt P08101 30-210); experiment: told of the L104-mk1 form; SPR was run on the MRAL-k0 form
T2 construct: also called mFcγRII; mFcgRII
T2 sequence: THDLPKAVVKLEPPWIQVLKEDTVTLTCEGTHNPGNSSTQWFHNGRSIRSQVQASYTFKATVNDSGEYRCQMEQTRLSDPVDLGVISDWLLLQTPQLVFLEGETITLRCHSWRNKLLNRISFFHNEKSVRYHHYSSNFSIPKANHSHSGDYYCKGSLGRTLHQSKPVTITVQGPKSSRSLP

[2] = biological target: T3, mouse FcγRII extracellular domain, C-terminally His-tagged (mouse, UniProt P08101 30-210); experiment: SPR Biacore T200, KD ratio
T3 construct: the whole entry is named; also called mFcγRII; mFcgRII
T3 sequence: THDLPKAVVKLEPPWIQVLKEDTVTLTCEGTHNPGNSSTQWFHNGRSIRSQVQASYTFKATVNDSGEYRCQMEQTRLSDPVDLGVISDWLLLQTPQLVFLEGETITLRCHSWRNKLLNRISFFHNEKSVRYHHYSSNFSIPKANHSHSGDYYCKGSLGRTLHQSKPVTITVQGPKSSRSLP
Experimental: (§1) As for alterations, “X000Z” represents the substitution of amino acid X at EU numbering position 000 by amino acid Z. In this context, X and Z represent the one-letter codes of the amino acid residues.
(§2) Each altered antibody was analyzed for its interaction with each Fcγ receptor prepared above using Biacore T100 (GE Healthcare Japan Corp.), Biacore T200 (GE Healthcare Japan Corp.), Biacore A100, or Biacore 4000. The running buffer used was HBS-EP+ (GE Healthcare Japan Corp.). The assay temperature was set to 25° C. The sensor chips used were chips prepared by immobilizing Protein L (ACTIGEN or BioVision) onto Series S Sensor Chip CM5 (GE Healthcare Japan Corp.) or Series S Sensor Chip CM4 (GE Healthcare Japan Corp.) by the amine coupling method.
(§3) In order to calculate the KD value of each altered antibody for FcγR, kinetic analysis was conducted according to the following method: first, the antibody of interest was captured onto any of these chips and allowed to interact with mFcγR diluted with a running buffer. For the obtained sensorgram, the assay results were globally fit into the 1:1 Langmuir binding model using Biacore Evaluation Software to calculate an association rate constant ka (L/mol/s) and a dissociation rate constant kd (1/s). From these values, the dissociation constant KD (mol/L) was calculated.

[3] = biological target: T4, mouse FcγRIII extracellular domain, C-terminally His-tagged (mouse, UniProt P08508 31-215); experiment: SPR Biacore T200, KD ratio
T4 construct: the whole entry is named; also called mFcγRIII; mFcgRIII
T4 chain: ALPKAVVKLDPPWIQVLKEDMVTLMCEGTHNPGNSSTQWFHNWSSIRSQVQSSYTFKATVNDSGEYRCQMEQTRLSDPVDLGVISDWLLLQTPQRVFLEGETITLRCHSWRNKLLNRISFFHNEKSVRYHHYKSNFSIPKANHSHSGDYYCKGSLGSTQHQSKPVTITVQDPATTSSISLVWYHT
Experimental: as §1, §2, §3

[4] = biological target: T3, mouse FcγRII extracellular domain, …; experiment: SPR Biacore T200, antibody captured on Protein L
Experimental: as §1, §2, §3

[5] = biological target: T4, mouse FcγRIII extracellular domain, …; experiment: SPR Biacore T200, antibody captured on Protein L
Experimental: as §1, §2, §3

mouse FcγRII [6] = biological target: T2, mouse FcγRII; experiment: told of the L104-mk1 form; SPR (Table 28) was run on the MRAL-k0 form

B1: H237-MB697/MRAL-k0 (antibody, mouse IgG1, kappa)
heavy: QVQLQESGPGLVKPSETLSLTCAVSGHSISHDHAWSWVRQPPGEGLEWIGFISYSGITNYNPSLQGRVTISRDNSKNTLYLQMNSLRAEDTAVYYCARSLARTTAMDYWGEGTLVTVSSAKTTPPSVYPLAPGSAAQTNSMVTLGCLVKGYFPEPVTVTWNSGSLSSGVHTFPAVLQSDLYTLSSSVTVPSSTWPSETVTCNVAHPASSTKVDKKIVPRDCGCKPCICEPPEVEFVFIFPPKPKDVLTITLTPKVTCVVVDISKDDPEVQFSWFVDDVEVHTAQTQPREEQFNSTFRSVSELPIMHQDWLNGKEFKCRVNSAAFPAPIEKTISKTKGRPKAPQVYTIPPPKEQMAKDKVSLTCMITDFFPEDITVEWQWNGQPAENYKNTQPIMDTDGSYFVYSKLNVQKSNWEAGNTFTCSVLHEGLHNHHTEKSLSHSPGK
light: not shown
notes: copies: 2 + 2
- binding result (mouse FcγRIII): no binding

B2: H237-MB367/L104-mk1 (antibody, mouse IgG1, kappa)
heavy: QVQLQESGPGLVKPSETLSLTCAVSGHSISHDHAWSWVRQPPGEGLEWIGFISYSGITNYNPSLQGRVTISRDNSKNTLYLQMNSLRAEDTAVYYCARSLARTTAMDYWGEGTLVTVSSAKTTPPSVYPLAPGSAAQTNSMVTLGCLVKGYFPEPVTVTWNSGSLSSGVHTFPAVLQSDLYTLSSSVTVPSSTWPSETVTCNVAHPASSTKVDKKIVPRDCGCKPCICEANEVEDVFIFPPKPKDVLTITLTPKVTCVVVDISKDDPEVQFSWFVDDVEVHTAQTQPREEQFNSTFRSVSELPIMHQDWLNGKEFKCRVNSAAFPAPIEKTISKTKGRPKAPQVYTIPPPKEQMAKDKVSLTCMITDFFPEDITVEWQWNGQPAENYKNTQPIMDTDGSYFVYSKLNVQKSNWEAGNTFTCSVLHEGLHNHHTEKSLSHSPGK
light: DIQMTQSPSSLSASVGDSVTITCQASTDISSHLNWYQQKPGKAPELLIYYGSHLLSGVPSRFSGSGSGTDFTFTISSLEAEDAATYYCGQGNRLPYTFGQGTKVEIERADAAPTVSIFPPSSEQLTSGGASVVCFLNNFYPKDINVKWKIDGSERQNGVLNSWTDQDSKDSTYSMSSTLTLTKDEYERHNSYTCEATHKTSTSPIVKSFNRNEC
notes: the text speaks of it for this form; copies: 2 + 2
- binding result (mouse FcγRII [1]): binds

B3: H237-MB701/MRAL-k0 (antibody, mouse IgG1, kappa)
heavy: QVQLQESGPGLVKPSETLSLTCAVSGHSISHDHAWSWVRQPPGEGLEWIGFISYSGITNYNPSLQGRVTISRDNSKNTLYLQMNSLRAEDTAVYYCARSLARTTAMDYWGEGTLVTVSSAKTTPPSVYPLAPGSAAQTNSMVTLGCLVKGYFPEPVTVTWNSGSLSSGVHTFPAVLQSDLYTLSSSVTVPSSTWPSETVTCNVAHPASSTKVDKKIVPRDCGCKPCICEVPEEEFVFIFPPKPKDVLTITLTPKVTCVVVDISKDDPEVQFSWFVDDVEVHTAQTQPREEQFNSTFRSVSELPIMHQDWLNGKEFKCRVNSAAFPAPIEKTISKTKGRPKAPQVYTIPPPKEQMAKDKVSLTCMITDFFPEDITVEWQWNGQPAENYKNTQPIMDTDGSYFVYSKLNVQKSNWEAGNTFTCSVLHEGLHNHHTEKSLSHSPGK
light: not shown
notes: copies: 2 + 2
- binding result (mouse FcγRIII): no binding

B4: H237-mF46/MRAL-k0 (antibody, mouse IgG1, kappa)
heavy: QVQLQESGPGLVKPSETLSLTCAVSGHSISHDHAWSWVRQPPGEGLEWIGFISYSGITNYNPSLQGRVTISRDNSKNTLYLQMNSLRAEDTAVYYCARSLARTTAMDYWGEGTLVTVSSAKTTPPSVYPLAPGSAAQTNSMVTLGCLVKGYFPEPVTVTWNSGSLSSGVHTFPAVLQSDLYTLSSSVTVPSSTWPSETVTCNVAHPASSTKVDKKIVPRDCGCKPCICTVPEVSDVFIFPPKPKDVLTITLTPKVTCVVVDISKDDPEVQFSWFVDDVEVHTAQTQPREEQFNSTFRSVSELPIMHQDWLNGKEFKCRVNSADFPAPIEKTISKTKGRPKAPQVYTIPPPKEQMAKDKVSLTCMITDFFPEDITVEWQWNGQPAENYKNTQPIMDTDGSYFVYSKLNVQKSNWEAGNTFTCSVLHEGLHNHHTEKSLSHSPGK
light: not shown
notes: S239D/A327D (EU) against H237-mIgG1; copies: 2 + 2
- relative mFcγRII-binding activity (mIgG1 = 1) [2]: 158 fold
- relative mFcγRIII-binding activity (mIgG1 = 1) [3]: 44 fold
- Kd [4]: 1.33 nM
- Kd [5]: 6.4 nM

B5: H237-MB477/L104-mk1 (antibody, mouse IgG1, kappa)
heavy: QVQLQESGPGLVKPSETLSLTCAVSGHSISHDHAWSWVRQPPGEGLEWIGFISYSGITNYNPSLQGRVTISRDNSKNTLYLQMNSLRAEDTAVYYCARSLARTTAMDYWGEGTLVTVSSAKTTPPSVYPLAPGSAAQTNSMVTLGCLVKGYFPEPVTVTWNSGSLSSGVHTFPAVLQSDLYTLSSSVTVPSSTWPSETVTCNVAHPASSTKVDKKIVPRDCGCKPCICEPNEVEDVFIFPPKPKDVLTITLTPKVTCVVVDIAKDDPEVQFSWFVDDVEVHTAQTQPREEQFNSTFRSVSELPIMHQDWLNGKEFKCRVNSAAFPAPIEKTISKTKGRPKAPQVYTIPPPKEQMAKDKVSLTCMITDFFPEDITVEWQWNGQPAENYKNTQPIMDTDGSYFVYSKLNVQKSNWEAGNTFTCSVLHEGLHNHHTEKSLSHSPGK
light: DIQMTQSPSSLSASVGDSVTITCQASTDISSHLNWYQQKPGKAPELLIYYGSHLLSGVPSRFSGSGSGTDFTFTISSLEAEDAATYYCGQGNRLPYTFGQGTKVEIERADAAPTVSIFPPSSEQLTSGGASVVCFLNNFYPKDINVKWKIDGSERQNGVLNSWTDQDSKDSTYSMSSTLTLTKDEYERHNSYTCEATHKTSTSPIVKSFNRNEC
notes: the text gives the rounded value for this form; copies: 2 + 2
- relative mFcγRII-binding activity (H237-mIgG1/L104-mk1 = 1) (mouse FcγRII [6]): ~200 fold

B6: H237-MB367/MRAL-k0 (antibody, mouse IgG1, kappa)
heavy: QVQLQESGPGLVKPSETLSLTCAVSGHSISHDHAWSWVRQPPGEGLEWIGFISYSGITNYNPSLQGRVTISRDNSKNTLYLQMNSLRAEDTAVYYCARSLARTTAMDYWGEGTLVTVSSAKTTPPSVYPLAPGSAAQTNSMVTLGCLVKGYFPEPVTVTWNSGSLSSGVHTFPAVLQSDLYTLSSSVTVPSSTWPSETVTCNVAHPASSTKVDKKIVPRDCGCKPCICEANEVEDVFIFPPKPKDVLTITLTPKVTCVVVDISKDDPEVQFSWFVDDVEVHTAQTQPREEQFNSTFRSVSELPIMHQDWLNGKEFKCRVNSAAFPAPIEKTISKTKGRPKAPQVYTIPPPKEQMAKDKVSLTCMITDFFPEDITVEWQWNGQPAENYKNTQPIMDTDGSYFVYSKLNVQKSNWEAGNTFTCSVLHEGLHNHHTEKSLSHSPGK
light: not shown
notes: T230E/V231A/P232N/S238E/S239D (EU) against H237-mIgG1; copies: 2 + 2
- relative mFcγRII-binding activity (mIgG1 = 1) [2]: 159 fold
- relative mFcγRIII-binding activity (mIgG1 = 1) [3]: 6.2 fold
- Kd [4]: 1.32 nM
- Kd [5]: 45.4 nM

B7: H237-MB492/L104-mk1 (antibody, mouse IgG1, kappa)
heavy: QVQLQESGPGLVKPSETLSLTCAVSGHSISHDHAWSWVRQPPGEGLEWIGFISYSGITNYNPSLQGRVTISRDNSKNTLYLQMNSLRAEDTAVYYCARSLARTTAMDYWGEGTLVTVSSAKTTPPSVYPLAPGSAAQTNSMVTLGCLVKGYFPEPVTVTWNSGSLSSGVHTFPAVLQSDLYTLSSSVTVPSSTWPSETVTCNVAHPASSTKVDKKIVPRDCGCKPCICEPNEVEDVFIFPPKPKDVLTITLTPKVTCVVVDISKDDPEVQFSWFVDDVEVHTAQTQPREEQFNSTFRSVSELPIMHQDWLNGKEFKCRVDSAAFPAPIEKTISKTKGRPKAPQVYTIPPPKEQMAKDKVSLTCMITDFFPEDITVEWQWNGQPAENYKNTQPIMDTDGSYFVYSKLNVQKSNWEAGNTFTCSVLHEGLHNHHTEKSLSHSPGK
light: DIQMTQSPSSLSASVGDSVTITCQASTDISSHLNWYQQKPGKAPELLIYYGSHLLSGVPSRFSGSGSGTDFTFTISSLEAEDAATYYCGQGNRLPYTFGQGTKVEIERADAAPTVSIFPPSSEQLTSGGASVVCFLNNFYPKDINVKWKIDGSERQNGVLNSWTDQDSKDSTYSMSSTLTLTKDEYERHNSYTCEATHKTSTSPIVKSFNRNEC
notes: as for B5
- relative mFcγRII-binding activity (H237-mIgG1/L104-mk1 = 1) (mouse FcγRII [6]): ~620 fold
